# Source: patent US20100216853
# B1: semi-synthetic p300 HAT domain, wild-type (protein)
# chain: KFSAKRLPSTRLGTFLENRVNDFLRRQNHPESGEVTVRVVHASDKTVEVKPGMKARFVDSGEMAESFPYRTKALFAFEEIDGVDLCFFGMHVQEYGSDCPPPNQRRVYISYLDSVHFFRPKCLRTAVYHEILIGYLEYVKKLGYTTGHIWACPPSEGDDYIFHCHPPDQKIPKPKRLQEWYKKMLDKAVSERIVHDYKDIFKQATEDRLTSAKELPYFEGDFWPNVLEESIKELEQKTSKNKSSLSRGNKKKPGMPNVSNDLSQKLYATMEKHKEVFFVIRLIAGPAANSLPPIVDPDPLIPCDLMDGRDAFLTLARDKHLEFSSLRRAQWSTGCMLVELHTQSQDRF
# How the values were obtained:
# H4-12(K5A/K12A) peptide = biological target: T1, H4-12(K5A/K12A) peptide
# T1 chain: RGAGGKGLGAGA
# H4-12(K5X/K12A) peptide = biological target: T2, H4-12(K5X/K12A) peptide
# T2 chain: RGXGGKGLGAGA
# [1] = biological target: T3, H4-15 histone H4 tail peptide
# T3 chain: GRGKGGKGLGKGGAK
# H4-15(K5D/K12D) peptide = biological target: T4, H4-15(K5D/K12D) peptide
# T4 chain: GRGDGGKGLGDGGAK
protein,measurement,setting,value
B1,Km,H4-12(K5A/K12A) peptide,Km of these substrates were generally too high to be measured (>1000 µM)
same,V/K(M^-1s^-1) for W.T.,H4-12(K5A/K12A) peptide,3820 M⁻¹ s⁻¹
same,Km,H4-12(K5X/K12A) peptide,Km of these substrates were generally too high to be measured (>1000 µM)
same,V/K(M^-1s^-1) for W.T.,H4-12(K5X/K12A) peptide,5250 M⁻¹ s⁻¹
same,Km(µM) for H4-15,[1],164 µM
same,V/K,[1],25000 ± 1640 M⁻¹ s⁻¹
same,V/K(M^-1s^-1) for W.T.,[1],25000 M⁻¹ s⁻¹
same,Km,H4-15(K5D/K12D) peptide,Km of these substrates were generally too high to be measured (>1000 µM)
same,V/K(M^-1s^-1) for W.T.,H4-15(K5D/K12D) peptide,636 M⁻¹ s⁻¹
